Measurements reported in patent publication US6617117B1, “MAP kinases: polypeptides, polynucleotides and uses thereof” (Medical Research Council, priority 1996, dated 2003).

Target: T1, SAPK3 (Rattus norvegicus, UniProt Q63538)
T1 sequence (Q63538 1-367): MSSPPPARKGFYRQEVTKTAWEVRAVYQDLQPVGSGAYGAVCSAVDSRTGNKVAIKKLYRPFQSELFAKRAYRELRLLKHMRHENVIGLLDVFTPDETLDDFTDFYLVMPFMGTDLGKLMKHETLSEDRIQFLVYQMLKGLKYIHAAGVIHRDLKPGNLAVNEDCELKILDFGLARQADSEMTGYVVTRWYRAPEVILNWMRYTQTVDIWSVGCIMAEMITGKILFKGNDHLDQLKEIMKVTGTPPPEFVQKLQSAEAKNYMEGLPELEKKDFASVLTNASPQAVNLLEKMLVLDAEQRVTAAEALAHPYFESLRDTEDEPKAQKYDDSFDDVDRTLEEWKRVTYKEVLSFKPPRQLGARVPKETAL
Test: Activation of transfected myc epitope-tagged SAPK3 in KB and 293 cells, immunoprecipitation and MBP assay
Format: cell-based, human
Set-up: expressed in transfected cells; host or cells: human KB and 293 cells (vector pSG5)
Settings: FIG. 11A
Method: FIG. 11. SAPK3 is activated by cytokines and cellular stresses in KB and 293 cells. KB cells (A) or 293 cells (B) were transiently transfected with a DNA construct expressing a myc epitope-tagged SAPK3. Cells in DMEM were stimulated for 15 min with 0.5 M sorbitol (an osmotic shock), 20 ng/ml IL-1α, 100 ng/ml TNFa, 0.5 mM sodium arsenite (a chemical stress), 100 ng/ml of EGF or 300 ng/ml TPA, or for 30 min with […] anisomycin or 10 min with 100 ng/ml IGF-1. UV-C irradiation of cells was carried out at 60 J/m2 (KB cells) or 200 J/m2 (293 cells) and the cells then left for a further 30 min at 37° C. before lysis. The myc epitope-tagged SAPK3 was immunoprecipitated from cell lysates using the 9E10 monoclonal antibody and assayed with MBP as substrate. […] After UV-C irradiation, SAPK3 activity in the extracts was 0.18 U/mg (KB cells) and 0.1 U/mg (293 cells).
Cell culture and transient transfections. 293, KB and COS-7 cells were cultured in Dulbecco's modified Eagles' Medium (DMEM) supplemented with 10% foetal calf serum, at 37° C., in an atmosphere of 5% CO2. Transfections of 293 cells were carried out using the calcium-phosphate method. […]

B1: EGF: growth factor stimulus from Boehringer (protein, UniProt P01133 23-1207, looked up)
Pro-epidermal growth factor: PQHWSCPEGTLAGNGNSTCVGPAPFLIFSHGNSIFRIDTEGTNYEQLVVDAGVSVIMDFHYNEKRIYWVDLERQLLQRVFLNGSRQERVCNIEKNVSGMAINWINEEVIWSNQQEGIITVTDMKGNNSHILLSALKYPANVAVDPVERFIFWSSEVAGSLYRADLDGVGVKALLETSEKITAVSLDVLDKRLFWIQYNREGSNSLICSCDYDGGSVHISKHPTQHNLFAMSLFGDRIFYSTWKMKTIWIANKHTGKDMVRINLHSSFVPLGELKVVHPLAQPKAEDDTWEPEQKLCKLRKGNCSSTVCGQDLQSHLCMCAEGYALSRDRKYCEDVNECAFWNHGCTLGCKNTPGSYYCTCPVGFVLLPDGKRCHQLVSCPRNVSECSHDCVLTSEGPLCFCPEGSVLERDGKTCSGCSSPDNGGCSQLCVPLSPVSWECDCFPGYDLQLDEKSCAASGPQPFLLFANSQDIRHMHFDGTDYGTLLSQQMGMVYALDHDPVENKIYFAHTALKWIERANMDGSQRERLIEEGVDVPEGLAVDWIGRRFYWTDRGKSLIGRSDLNGKRSKIITKENISQPRGIAVHPMAKRLFWTDTGINPRIESSSLQGLGRLVIASSDLIWPSGITIDFLTDKLYWCDAKQSVIEMANLDGSKRRRLTQNDVGHPFAVAVFEDYVWFSDWAMPSVMRVNKRTGKDRVRLQGSMLKPSSLVVVHPLAKPGADPCLYQNGGCEHICKKRLGTAWCSCREGFMKASDGKTCLALDGHQLLAGGEVDLKNQVTPLDILSKTRVSEDNITESQHMLVAEIMVSDQDDCAPVGCSMYARCISEGEDATCQCLKGFAGDGKLCSDIDECEMGVPVCPPASSKCINTEGGYVCRCSEGYQGDGIHCLDIDECQLGEHSCGENASCTNTEGGYTCMCAGRLSEPGLICPDSTPPPHLREDDHHYSVRNSDSECPLSHDGYCLHDGVCMYIEALDKYACNCVVGYIGERCQYRDLKWWELRHAGHGQQQKVIVVAVCVVVLVMLLLLSLWGAHYYRTQKLLSKNPKNPYEESSRDVRSRRPADTEDGMSSCPQPWFVVIKEHQDLKNGGQPVAGEDGQAADGSMQPTSWRQEPQLCGMGTEQGCWIPVSSDKGSCPQVMERSFHMPSYGTQTLEGGVEKPHSLLSANPLWQQRALDPPHQMELTQ
modifications: Pro-epidermal growth factor
notes: growth factor stimulus from Boehringer
Question: With B1 as the molecule, how does the “Activation of transfected SAPK3 (in words)” value read?
Answer: Its value is “more weakly”.
